# Laboratory results: patent US20220411504A1 (Janssen / Centocor, published 2022)
# Residue numbers refer to the chain shown, from its start.
# T1: DLL3 on tumor cells (SHP-77, HCC1833, G361) (human, UniProt Q9NYJ7 27-618)
# T1 sequence: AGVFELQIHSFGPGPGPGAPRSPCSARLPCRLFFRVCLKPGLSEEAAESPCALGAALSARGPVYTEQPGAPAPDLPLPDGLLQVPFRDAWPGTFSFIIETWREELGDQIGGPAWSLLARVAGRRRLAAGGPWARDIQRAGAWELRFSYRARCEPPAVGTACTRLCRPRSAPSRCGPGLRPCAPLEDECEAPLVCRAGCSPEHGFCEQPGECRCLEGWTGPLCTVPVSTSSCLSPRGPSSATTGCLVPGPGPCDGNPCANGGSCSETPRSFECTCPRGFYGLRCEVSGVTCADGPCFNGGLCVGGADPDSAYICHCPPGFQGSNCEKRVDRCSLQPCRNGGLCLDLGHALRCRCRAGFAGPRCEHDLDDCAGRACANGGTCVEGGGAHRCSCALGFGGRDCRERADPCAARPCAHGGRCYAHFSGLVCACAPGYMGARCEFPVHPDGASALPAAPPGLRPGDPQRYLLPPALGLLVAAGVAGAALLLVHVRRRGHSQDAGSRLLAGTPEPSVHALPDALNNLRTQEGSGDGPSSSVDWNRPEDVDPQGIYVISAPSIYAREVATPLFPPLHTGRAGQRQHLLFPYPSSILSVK
# T2: recombinant human DLL3 (human, UniProt Q9NYJ7 27-492)
# T2 construct: also called DLL3 antigen; Delta-like protein 3
# T2 sequence: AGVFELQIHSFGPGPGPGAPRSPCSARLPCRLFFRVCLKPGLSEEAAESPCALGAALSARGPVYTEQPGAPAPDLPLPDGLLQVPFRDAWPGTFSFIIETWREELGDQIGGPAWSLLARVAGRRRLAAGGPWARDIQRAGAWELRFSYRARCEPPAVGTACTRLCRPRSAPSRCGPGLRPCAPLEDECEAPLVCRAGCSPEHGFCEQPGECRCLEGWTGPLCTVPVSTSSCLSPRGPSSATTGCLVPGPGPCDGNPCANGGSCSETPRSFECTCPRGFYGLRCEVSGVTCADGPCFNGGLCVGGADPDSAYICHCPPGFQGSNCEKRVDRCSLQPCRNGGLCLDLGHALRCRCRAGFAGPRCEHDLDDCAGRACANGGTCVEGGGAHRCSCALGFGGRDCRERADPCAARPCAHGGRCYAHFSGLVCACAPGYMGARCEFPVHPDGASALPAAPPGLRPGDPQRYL
# T3: CD3W147 (homodimeric CD3εγ-Fc) (human, biotinylated)
# T3 construct: also called recombinant CD3
# T3 chain: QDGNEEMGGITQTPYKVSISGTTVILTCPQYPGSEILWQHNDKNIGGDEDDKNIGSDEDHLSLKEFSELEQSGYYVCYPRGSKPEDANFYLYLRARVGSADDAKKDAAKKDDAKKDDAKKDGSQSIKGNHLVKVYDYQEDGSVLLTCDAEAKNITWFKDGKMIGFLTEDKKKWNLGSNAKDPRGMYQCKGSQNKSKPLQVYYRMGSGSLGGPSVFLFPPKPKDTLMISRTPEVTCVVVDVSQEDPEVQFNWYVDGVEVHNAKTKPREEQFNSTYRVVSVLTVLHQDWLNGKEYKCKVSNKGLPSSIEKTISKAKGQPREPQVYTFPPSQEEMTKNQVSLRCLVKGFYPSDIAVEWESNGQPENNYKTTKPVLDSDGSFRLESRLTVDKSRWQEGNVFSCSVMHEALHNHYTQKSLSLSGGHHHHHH
# B1: DL3B582 (bispecific antibody)
# heavy: QVQLVQSGAEVKKPGASVKVSCKASGNTFTNYYIHWVRQAPGQGLEWMGIINPSGGSTSYAQKLQGRMTMTRDTSTSTVYMELSSLRSEDTAVYFCARQGPFIGDAFDIWGQGTMVTVSSASTKGPSVFPLAPSSKSTSGGTAALGCLVKDYFPEPVTVSWNSGALTSGVHTFPAVLQSSGLYSLSSVVTVPSSSLGTQTYICNVNHKPSNTKVDKKVEPKSCDKTHTCPPCPAPEAAGGPSVFLFPPKPKDTLMISRTPEVTCVVVSVSHEDPEVKFNWYVDGVEVHNAKTKPREEQYNSTYRVVSVLTVLHQDWLNGKEYKCKVSNKALPAPIEKTISKAKGQPREPQVYVLPPSREEMTKNQVSLLCLVKGFYPSDIAVEWESNGQPENNYLTWPPVLDSDGSFFLYSKLTVDKSRWQQGNVFSCSVMHEALHNHYTQKSLSLSPG
# light: DIQMTQSPSSLSASVGDRVTITCRASQGISNYLAWFQQKPGKAPKSLIYAASSLQSGVPSKFSGSGSGTDFTLTISSLQPEDFATYYCQQYNSYPYTFAQGTKLEIKRTVAAPSVFIFPPSDEQLKSGTASVVCLLNNFYPREAKVQWKVDNALQSGNSQESVTEQDSKDSTYSLSSTLTLSKADYEKHKVYACEVTHQGLSSPVTKSFNRGEC
# scFv: DIQMTQSPSSLSASVGDRVTITCRARQSIGTAIHWYQQKPGKAPKLLIKYASESISGVPSRFSGSGSGTDFTLTISSLQPEDFATYYCQQSGSWPYTFGQGTKLEIKGGSEGKSSGSGSESKSTGGSEVQLVESGGGLVKPGGSLRLSCAASGFTFSRYNMNWVRQAPGKGLEWVSSISTSSNYIYYADSVKGRFTFSRDNAKNSLDLQMSGLRAEDTAIYYCTRGWGPFDYWGQGTLVTVSSEPKSSDKTHTCPPCPAPEAAGGPSVFLFPPKPKDTLMISRTPEVTCVVVSVSHEDPEVKFNWYVDGVEVHNAKTKPREEQYNSTYRVVSVLTVLHQDWLNGKEYKCKVSNKALPAPIEKTISKAKGQPREPQVYVYPPSREEMTKNQVSLTCLVKGFYPSDIAVEWESNGQPENNYKTTPPVLDSDGSFALVSKLTVDKSRWQQGNVFSCSVMHEALHNHYTQKSLSLSPG
# notes: also called CD3W245-LH-scFv; DL3B279-Fab
# B2: MHGB669 (antibody, human IgG1, kappa, V domains shown)
# VH: QVQLQQSGPGLVRPSQTLSVTCAISGDSVSSNSASWNWIRQSPSRGLEWLGRTYYRSEWFNDYAVSVKSRVTINPDTSKNQLSLQLNSVIPEDTAVYYCAREARIGVAGKGFDYWGQGTLVTVSS
# VL: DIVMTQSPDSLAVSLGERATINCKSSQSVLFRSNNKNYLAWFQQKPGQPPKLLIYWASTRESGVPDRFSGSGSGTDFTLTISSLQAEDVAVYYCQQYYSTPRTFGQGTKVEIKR
# notes: IgG1
# B3: MHGB668 (antibody, human IgG1, kappa, V domains shown)
# VH: QVQLQQSGPGLVKPSQTLSLTCAISGDSVSNNSAAWNWIRQSPSRGLEWLGRTYYRSKWYNDYAVSVKSRITINPDTSKNQFSLQLNSVTPEDTAVYYCARYGSGTLLFDYWGQGTLVTVSS
# VL: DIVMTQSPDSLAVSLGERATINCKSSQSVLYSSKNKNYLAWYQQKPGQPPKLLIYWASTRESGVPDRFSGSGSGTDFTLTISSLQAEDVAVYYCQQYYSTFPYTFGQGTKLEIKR
# notes: IgG1
# B4: MHGB672 (antibody, human IgG1, kappa, V domains shown)
# VH: QVQLQQSGPGLVKPSQTLSLTCAISGDSVSSNRAAWNWIRQTPSRGLEWLGRTYYRSEWYNDYAVSVKSRITINPDTSKNQFSLQLNSVTPEDTAVYYCARVRAAVPFDYWGQGTLVTVSS
# VL: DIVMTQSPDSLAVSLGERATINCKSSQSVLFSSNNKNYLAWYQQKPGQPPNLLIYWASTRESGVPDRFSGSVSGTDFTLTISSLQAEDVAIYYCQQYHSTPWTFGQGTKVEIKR
# notes: IgG1
# B5: MHGB694 (antibody, human IgG1, kappa, V domains shown)
# VH: EVQLLESGGGLVQPGGSLRLSCAASGFTFSSYAMHWVRQAPGKGLDWVSGISGSGFSTYYVDSVKGRFTISRDNSKHTLYLQMNSLRAEDTAVYYCAKDNLVAGTVFDYWGQGTLVTVSS
# VL: not shown
# notes: IgG1
# B6: MHGB687 (antibody, human IgG1, kappa, V domains shown)
# VH: QLQLQESGPGLVKPSETLSLMCTVSGGSITSSSYYWGWIRQPPGKGLEWIGNIYYSGTTYYNPSLKSRVTISVDTSKNQFSLKLSSVTAADTAVYYCAAGARDFDSWGQGSLVTVSS
# VL: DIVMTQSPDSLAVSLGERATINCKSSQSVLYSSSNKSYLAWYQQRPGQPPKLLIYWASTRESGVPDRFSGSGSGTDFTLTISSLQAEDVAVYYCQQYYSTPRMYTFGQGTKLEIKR
# notes: IgG1
# B7: MHGB688 (antibody, human IgG1, kappa, V domains shown)
# VH: EVQLLESGPGLVKPSQTLSLTCVISGDSVSSNRAAWNWIRQSPSRGLEWLGRTYYRSKWYNDYAVSVKSRITINSDTSKNQISLQLNSVTPEDTAVYYCARVRPGIPFDYWGQGTPVTVSS
# VL: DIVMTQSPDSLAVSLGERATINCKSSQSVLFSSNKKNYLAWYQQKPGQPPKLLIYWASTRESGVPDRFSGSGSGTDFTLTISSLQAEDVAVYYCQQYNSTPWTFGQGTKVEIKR
# notes: IgG1
# B8: CD3W238-HL-E.c. (scFv)
# scFv: EVQLVESGGGLVKPGGSLRLSCAASGFTFSRYNMNWVRQAPGKGLEWVSSISTSSNYIYYADSVKGRFTFSRDNAKNSLDLQMSGLRAEDTAIYYCTRGWGPFDYWGQGTLVTVSSGTEGKSSGSGSESKSTDIQMTQSPSSLSASVGDRVTITCRARQSIGTAIHWYQQKPGKAPKLLIYYASESISGVPSRFSGSGSGTDFTLTISSLQPEDFATYYCQQSNSWPYTFGQGTKLEIKGPGGQHHHHHHGAYPYDVPDYAS
# notes: E. coli supernatant
# B9: CD3W244-HL-E.c. (scFv)
# scFv: B8 scFv with L210V, N224G
# notes: E. coli supernatant
# B10: CD3W247-HL-E.c. (scFv)
# scFv: B8 scFv with N224G
# notes: E. coli supernatant
# B11: CD3W242-HL-E.c. (scFv)
# scFv: B8 scFv with Y181K
# notes: E. coli supernatant
# B12: CD3W246-HL-E.c. (scFv)
# scFv: B8 scFv with Y181K, L210V, N224G
# notes: E. coli supernatant
# B13: CD3W243-HL-E.c. (scFv)
# scFv: B8 scFv with Y181K, L210V
# notes: E. coli supernatant
# B14: MHGB738 (antibody, human IgG1, kappa, V domains shown)
# VH: B7 VH with E1Q, L5Q, E6Q, V23A, S75P
# VL: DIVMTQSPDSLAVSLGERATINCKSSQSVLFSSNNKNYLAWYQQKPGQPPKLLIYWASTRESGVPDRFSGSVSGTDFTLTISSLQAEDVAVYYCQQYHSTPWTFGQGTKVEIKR
# notes: IgG1; also called GL optimized B688
# Biological target: T1, DLL3 on tumor cells (SHP-77, HCC1833, …)
# Assay: cell-based or functional assay
row,Binder,"Cytotoxicity, % lysis of SHP-77 cells (whole PBMCs, 1:1 ET, 30 nM) [%]"
1,B1,87.3

# Biological target: T4, HLA-G on cells (K562-HLA-G and HLA-G expressing tumor cells) (human)
# T4 construct: whole, on cells; also called HLA-G1
# Assay: flow cytometry, IgG1 mAb on cells expressing HLA-G
row,GeoMean fluorescence (maximum value),Binder
1,616000,B2
2,591000,B3
3,522000,B4
4,473000,B5
5,528000,B6
6,482000,B7

# Biological target: T5, Human CD3 epsilon (CD3ε) of the T cell receptor complex on cells (human, UniProt P07766 23-207)
# T5 construct: On Jurkat cells and primary human (pan) T cells; also called T-cell surface glycoprotein CD3 epsilon chain; T3E
# Assay: flow cytometry, E. coli supernatant on human T cells
# T5 sequence (P07766 23-207 limits assumed, one chain of several): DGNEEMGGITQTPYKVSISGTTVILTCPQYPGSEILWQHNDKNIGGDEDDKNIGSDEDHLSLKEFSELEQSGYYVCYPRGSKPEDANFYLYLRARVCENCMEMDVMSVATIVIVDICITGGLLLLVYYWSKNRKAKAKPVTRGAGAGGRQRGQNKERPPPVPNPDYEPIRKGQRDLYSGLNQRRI
row,MFI (n = 2),Binder
1,137000,B8
2,166000,B9
3,111000,B10
4,126000,B11
5,154000,B12
6,111000,B13

# Biological target: T6, MHGW8 (B2m-3(G4S)-HLA-G1-G4S-Avi) (human, biotinylated (Avi tag) in the blocking assay)
# T6 construct: Single chain β2m-HLA-G1; also called soluble HLA-G1 extracellular domain; recombinant biotinylated HLA-G1
# Assay: SPR, mAb captured by goat anti-human Fc, MHGW8 flowed
Kd [nM],koff [s⁻¹],kon [M⁻¹ s⁻¹],Binder
1.44,0.000453,315000,B2
0.55,0.00179,3.25e+06,B4
1.15,0.0024,2.08e+06,B5
0.809,0.000153,189000,B6
0.4,0.000263,658000,B7
0.139,–,–,B14

# Biological target: T2, recombinant human DLL3
# Assay: SPR (Biacore T200), antibody captured by goat anti-Fc, DLL3 titrated
row,Kd [nM],Binder
1,0.016,B1

# Biological target: T3, CD3W147 (homodimeric CD3εγ-Fc)
# Assay: ELISA, E. coli supernatant (heated to 60° C., cooled) on biotinylated CD3W147
row,binding result,Binder
1,binds,B8
2,binds,B9
3,binds,B10
4,binds,B11
5,binds,B12
6,binds,B13

# Biological target: T6, MHGW8 (B2m-3(G4S)-HLA-G1-G4S-Avi)
# Assay: flow cytometry competition: blocks MHGW8-dextramer binding to ILT2 on HEK293T cells (competitor ILT2)
row,EC50 [nM],Binder
1,1700,B2
2,2120,B4
3,644,B5
4,1720,B7
5,1.6,B14

# Biological target: T6, MHGW8 (B2m-3(G4S)-HLA-G1-G4S-Avi)
# Assay: flow cytometry competition: blocks MHGW8-dextramer binding to ILT4 on HEK293T cells (competitor ILT4)
row,EC50 [nM],Binder
1,1590,B2
2,1610,B4
3,200,B5
4,1860,B6
5,1420,B7
6,1.6,B14
